Reference: patent US20250051821

T1: IFF05588
T1 chain: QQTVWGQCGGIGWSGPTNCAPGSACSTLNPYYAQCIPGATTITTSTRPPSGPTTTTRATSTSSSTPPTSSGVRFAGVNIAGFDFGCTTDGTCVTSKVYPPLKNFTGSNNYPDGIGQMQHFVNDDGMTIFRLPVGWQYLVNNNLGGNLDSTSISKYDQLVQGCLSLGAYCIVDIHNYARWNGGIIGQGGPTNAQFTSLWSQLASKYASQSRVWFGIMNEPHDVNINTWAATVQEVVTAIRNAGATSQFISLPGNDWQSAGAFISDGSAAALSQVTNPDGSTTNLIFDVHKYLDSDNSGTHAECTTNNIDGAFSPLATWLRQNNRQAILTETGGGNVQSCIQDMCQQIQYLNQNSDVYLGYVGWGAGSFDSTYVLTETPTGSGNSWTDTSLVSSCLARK


Target: T1, IFF05588

Protein	Relative late peak area (centered, scaled, averaged over 5, 10 and 15 min)	Relative late peak area (centered, scaled, averaged over doses, 24 h; sample diluted 2-fold)	Relative late peak area (reverse phase chromatography, 24 h)	Relative late peak area (centered, scaled, averaged over doses, 24 h; sample diluted 1-fold)	modification of IFF05588 (reverse phase chromatography, 5 to 15 min)	modification of IFF05588 (reverse phase chromatography, 24 h)	modification of IFF05588 (reverse phase chromatography, 24 h, doses)
IFF21364 (protein) QLDKPALTDNLDYLLDGNVANLPSNGGPYWGKWEDGLIPADCKSIAESQGLNPTDFEVYDIFFDDCQDGWSFCRHKDSSDSFETLVDTFGRVPVRMRSWVRHILTIPGNNWAFNSNGNIAFSGTTSSNLDVALHETGHSLDLLGAYGDGALSSSQEWEDAYNADSNVPDNYAQSNQVENVAQNTVVGIYDKVVPGGFPGVQPNYANIQNQYTLLQDKAGEQIIPGGTCDRHLENSDTVSMSGSSSKRDVRAAKARAASHDSALKGKYSNIVKDFKPFNSQDFHH	-0.57	-0.28	0.49				
IFF21371 (protein) QLDKPLVVPAMPALDAGLLKHLAAPAYTTSQWEWGWIPQWCKDEAVSEKLSPYDIEVFNIHYNDCKDVWIFCRHNAAQASQKDMIDIFGRMPVRTRQFVRHILAVPGTISAGSSGDNIALRGTGPNLISVLIHEAAHSMDSHAVDSLSKPFHNTAEWLAAYKADSAISDDYAQTSQSENFAQTVVIAVFDKVVPGGIGSVQPSWAAIKNQYTTAQKWLGDLIIPGGTCTARLENSPVASMGRASGNGARMRRRARGGKPDVSLSKDTKVIPAIAGKKIHITSFAQ	-0.95			-1.12			
IFF21353 (protein) NLDKPVIQPNFPSLAPGLMSHLAPTHSTWDDWGAGWIPQDCKSMVQGAGFSPNDIIPFNIHYDDCGQTWTFCRHKNSPLSELQILDMFGRLPVRMRSFVRHLVFVPGNRSAGSNGDNILVVGDGDITLFAHEIGHSLDSHAFDPSYGVPFSTGNVWVSNYNLDSAVSDSYAQTSQQENFAQETVISLFDKVVPGGIGTIQPNWQAIFHQYATLQGYIGNVIIPGGTCTHRLTDSPPVPMSGSAKSRRGLGPKPEVSLSPEVKEIEAIPMESSITMTSFDEHGKPNGTYVIHLK	-1.06		0.25	-1.31	All samples containing proteins related to IFF05497 except seven (IFF21355, IFF21358, IFF21356, IFF21361, IFF21370, IFF21357 and IFF21353) are able to modify IFF05588 under these reaction conditions		
IFF21369 (protein) QLPKPIMSPAVPFDHTDPILYQHLGSTPSTYDQWGWGWLPLRCKAVAEARGLNPYDVNVYNVHYEDCDQAWVMCRHHGAQVSLDQMIDNFGRLPVRLRNIVRHQFAVPGEGLGAYTYSDLGDIVFTGDIGHLLRFWVHEAGHAVDRNINPSQGDYSSSQAWINEYNKDGYICDEYAKNNMAENFAQEVIVALFDKVVPGGIGTIVPNWNDIFHQYATVQAVMGDMLIPGGFCNRHFADDTIVCMGPAAGCENSKRDYEGLNSTETYTAEAEEPTVCTLA	-1			-1.42			
IFF21368 (protein) QLSKPVMNPPVPFSDLDPTLFKYLKSTPHNRDQWGWGWLPARCKAIADQQGLNAYDIDVYNVHYSDCNQAWVMCRHHLSPLSIDTMAENFGRIPVRMRNFVRVQFALPQKDSSFGGATFSDLGDILWYGDVSKTLRFWIHEAGHTIDRNINPGSNDDYSKSSAWLNEYNKDGFICDDYAKNNAAENFAQEVIVALFDKVVPGGLGSVSPNWNSIFHQYATVQSKLGDILIPGGTCNRKFADDTIVCMGPAANCNSKANAKFRLKADKTQDAAIVAASDNPPIEDLFEVEE	-1			-1.44			
IFF21377 (protein) KRLDKPALTPDLGYLLQGSVDNLHPTHSTWDKWGDGWIPEDCKSMAQNPNLNLNLNPSDFEVYNVHYDDCGDAWVLCRHKDSPVDLVTTVDIFGRLPVRMRDWVRHVMTVPGNDYAFNLNGNIVFSGRTSTNMDVAIHETGHSLDLLKAYGEVLSSSQTWIDNYNQDSNVPDNYAQSSQIENVAQNTVVSVFDKIVPGGFGSVQPNWHNIFHQYATLKSKAGDLILPGGQCDRRLKDSSPIPMDSNANEQGLLSWKPRTSFVNTYNNIVTNFEPFNTAEHCKESFS	-0.99			-1.45			
IFF21357 (protein) GNPDKPEVNPHIPYDRLESDLRNNLHPTQSTWDYWGAGWIPQGCKDLANTYHLNPADFTVFNVHYTDCSASWTFCRHKDAGASEIDMIDMLGRLPVRMRSYTRHLMATPGLNDGAAAWTWSTGDTVVESAPNLATLVHEVSHSLDWHALPQYQQPFSSSSIWQDNYNQDSATPTGYGRTNWMENFAETGMVGVYDKVVPGGIGNIESNWNSIFHQYATYQGYLGDKIIPGGSCANRFDDTAPVTMSNSAKFRVTSPKPETGIDFAGKNITQIIPSKEVEGLFIKG	-1.05			-1.49	All samples containing proteins related to IFF05497 except seven (IFF21355, IFF21358, IFF21356, IFF21361, IFF21370, IFF21357 and IFF21353) are able to modify IFF05588 under these reaction conditions		
IFF21362 (protein) GSPDKPEMNPAFDYGRFEAGLRDNLHPTHSTWDYWGPGWIPQSCKDIATSHGLSPNDFTIFNVHYDDCQEGWTFCRHKDAGASEIDMIDIFGRAPVHMRSFIRHLVATPGLHDGAAAFTFSNGDCVVESAPDLSVMLHEMSHSLDWHALPQYPSPFSSSNEWQSNYAQDSNTPTAYGRTNWLEDFAEAGKVGVFDKVVPGGFGSVAGNWGQVFHQYATYQGYLGDTILPGGTCDKRFPNSETVPMAGNSKRMAADLGEKPDNTIKADNMTLIQMRPEIEGQVSICEHQH	-0.99		0.23	-1.52		All samples containing proteins related to IFF05497 except one (IFF21362) are able to modify IFF05588 under these reaction conditions	
IFF21356 (protein) GNPDKPEVNPHIPYDRLESDLRNNLHPTQSTWDYWGAGWIPQGCKDLANTYHLNPADFTIFNVHYTDCSASWTFCRHKNAGASEIDMIDIFGRLPVHMRSYIRHLVATPGLNDGAAAWTWSSGDCVVESAPNLATLVHEVSHSLDWHALPQYQQPFSSSSIWQDNYNQDSATPTGYGRTNWMENFAETGMVGVYDKVVPGGIGNIEPNWNAIFHQYATYQGYLGDKIIPGGSCANRFDDTPPVAMSNSAKVKVNSPKPGTRIDFAGTNITQIIPSKEVEGLYIKG	-1.04			-1.52	All samples containing proteins related to IFF05497 except seven (IFF21355, IFF21358, IFF21356, IFF21361, IFF21370, IFF21357 and IFF21353) are able to modify IFF05588 under these reaction conditions		
IFF21355 (protein) GNPDKPEVSPRIPYDRLESGLRNNLHPTQSTWDYWGAGWIPQGCKDLAKTYHLNPADFTIFNVHYTDCSASWTFCRHKDAGASEIDMIDIFGRLPVRMRSYIRHLMATPGLNDGAAAWTWSSGDCVVESAPNLATLVHEVSHSLDWHALPQYQQPFSSSSIWQDNYNQDSATPTGYGRTNWMENFAETGTVGVYDKVVPGGIGNIEPNWNAIFHQYATYQGYLGDKIIPGGSCANRFEDTPPVAMSNSVKFKITSPKPEIGIDFVGKNITQIIPSKEVEGLYIKG	-1.02			-1.52	All samples containing proteins related to IFF05497 except seven (IFF21355, IFF21358, IFF21356, IFF21361, IFF21370, IFF21357 and IFF21353) are able to modify IFF05588 under these reaction conditions		
IFF21376 (protein) QTLDKPALTPDLDYLEQGAIDNLAPTQSTNDQWGSGWIPSDCKDIANNEGKNPDDFEIYNVHYDDCDDAWVFCRHKDTPTDLITTIDIFGRLPVAMRSWVRHVLTIPGDNYAYNSNGNIAFFGTTSGIMDVAIHETGHSLDLLGAYGDQLSSSQDWLDNYNQDSNVPDNYAQTNQIENVEQNTVVSVYDKVVPGGFGSAQPNWNNIFHQYATLQGKAGDQIIPGGSCDRHLVNSETVSTSDSAAAAMVDAVDKPVTSFKGNYTKILKTHAKFNTKESCYFGN	-0.99			-1.61			
IFF21361 (protein) DLLRPEIDTVFADGLGPLDQPLVDNLPLTSYTLNQWAPGWIPADCKAMIEGQNMSATEMTVWSVAYADCVDPWVMCQHPSAELNLTAMIDLFGRLPVKMRSLVRHLAAIPGRPWAYNSGTTGRISVFAHEVGHSMDYHGYFNDTRGQFSLSSLWLDNFAKDSGVADYYANTDQGENHSQEVVVALFDANVPGGLGSVTGNWSAILHQYATIQGFVGDGGDTLTPGGACSHRHNNSAAVPMTTEDAAQGPPPDVELTGPVHVYAFKPMEPVANATVVKEDGVAAPMVVKVF	-1.05			-1.64	All samples containing proteins related to IFF05497 except seven (IFF21355, IFF21358, IFF21356, IFF21361, IFF21370, IFF21357 and IFF21353) are able to modify IFF05588 under these reaction conditions		All samples containing proteins related to IFF05497 except two (IFF21376 and IFF21361) are able to modify IFF05588 under these reaction conditions. Close comparison of the chromatograms for these two samples show differences between buffer and sample chromatograms indicative of activity in the sampl
